Laboratory results as given in the supplement of paper PMC10724198.
± gives the standard deviation of the averaged measurements.

Legend:
Saccharomyces cerevisiae [1] = experiment: protein stability index of tFT-peptide fusion (C-terminal peptide) (PSI (0-1 scale)); higher = more stable (slower turnover); conditions: genetic background: wild type; temperature: 30 C
Saccharomyces cerevisiae [2] = experiment: as above
Experimental: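 MPS profiling in S. cerevisiae of the tFT-X12 degron library: putative degron peptides plus stable controls, 12 aa, fused to the C-terminus of a sfGFP-mCherry timer. Cells are FACS-sorted into 8 mCherry/sfGFP bins and deep-sequenced. PSI runs from 0 (unstable) to 1 (stable). Backgrounds are wild type, das1Δ and doa10Δ at 30 °C, and wild type, das1Δ, cdc34-1 and cdc53-1 at 37 °C; 2-3 technical replicates each.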

[3] = genetic background: cdc34-1, temperature: 37 C
[4] = genetic background: cdc53-1, temperature: 37 C
[5] = genetic background: das1 deletion, temperature: 30 C
[6] = genetic background: das1 deletion, temperature: 37 C
[7] = genetic background: doa10 deletion, temperature: 30 C
[8] = genetic background: wild type, temperature: 30 C
[9] = genetic background: wild type, temperature: 37 C
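Also: PSI is a weighted mean of sequencing reads over stability bins, variants kept only with over 10 reads, mCherry proximal and sfGFP distal, peptide attached via GGGS linker.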

| Sequence | protein stability index (Saccharomyces cerevisiae [1]) | protein stability index (Saccharomyces cerevisiae [2]; [3]) | protein stability index (Saccharomyces cerevisiae [2]; [4]) | protein stability index (Saccharomyces cerevisiae [2]; [5]) | protein stability index (Saccharomyces cerevisiae [2]; [6]) | protein stability index (Saccharomyces cerevisiae [2]; [7]) | protein stability index (Saccharomyces cerevisiae [2]; [8]) | protein stability index (Saccharomyces cerevisiae [2]; [9]) |
| --- | --- | --- | --- | --- | --- | --- | --- | --- |
| TYCFRVCAWRAN | 0.341 ± 0.016 | 0.603 ± 0.049 | 0.706 ± 0.021 | 0.583 ± 0.0094 | 0.677 ± 0.012 | 0.176 ± 0.0011 | 0.208 ± 0.026 | 0.396 ± 0.017 |
| VACLRLTVYVMG | 0.193 ± 0.028 | 0.0455 ± 0.0053 | 0.0789 ± 0.015 | 0.128 ± 0.025 | 0.231 ± 0.0037 | 0.101 ± 0.009 | 0.124 ± 0.03 | 0.204 ± 0.016 |
| VASYVCIGVVWV | 0.351 ± 0.035 | 0.4298 ± 0.0038 | 0.492 ± 0.061 | 0.301 ± 0.023 | 0.497 ± 0.025 | 0.262 ± 0.0045 | 0.299 ± 0.02 | 0.456 ± 0.01 |
| VCFLCIWLYSED | 0.344 ± 0.026 | 0.268 ± 0.028 | 0.358 ± 0.013 | 0.227 ± 0.041 | 0.4305 ± 0.004 | 0.218 ± 0.017 | 0.221 ± 0.033 | 0.418 ± 0.056 |
| VCLFFFGYWCCL | 0.501 ± 0.024 | 0.565 ± 0.066 | 0.555 ± 0.026 | 0.469 ± 0.015 | 0.566 ± 0.0067 | 0.493 ± 0.017 | 0.479 ± 0.0093 | 0.53 ± 0.011 |
| VCLFRLVVFFPV | 0.349 ± 0.005 | 0.234 ± 0.039 | 0.335 ± 0.024 | 0.217 ± 0.021 | 0.426 ± 0.037 | 0.196 ± 0.02 | 0.222 ± 0.018 | 0.377 ± 0.014 |
| VCLLFRFCCWFW | 0.371 ± 0.017 | 0.351 ± 0.024 | 0.357 ± 0.0081 | 0.305 ± 0.013 | 0.461 ± 0.02 | 0.331 ± 0.025 | 0.304 ± 0.01 | 0.414 ± 0.03 |
| VCTFLLVSFFLS | 0.326 ± 0.017 | 0.223 ± 0.0027 | 0.315 ± 0.064 | 0.237 ± 0.028 | 0.423 ± 0.012 | 0.186 ± 0.019 | 0.185 ± 0.017 | 0.33 ± 0.0099 |
| VCVYLVSLPYLA | 0.303 ± 0.035 | 0.451 ± 0.015 | 0.462 ± 0.025 | 0.39 ± 0.026 | 0.522 ± 0.021 | 0.239 ± 0.018 | 0.232 ± 0.03 | 0.381 ± 0.011 |
| VDFCLLFLLLLV | 0.432 ± 0.025 | 0.427 ± 0.041 | 0.442 ± 0.0072 | 0.349 ± 0.034 | 0.482 ± 0.032 | 0.425 ± 0.027 | 0.331 ± 0.02 | 0.462 ± 0.014 |
| VFCLPISAPPLH | 0.685 ± 0.023 | 0.679 ± 0.0083 | 0.739 ± 0.022 | 0.642 ± 0.023 | 0.727 ± 0.0031 | 0.626 ± 0.02 | 0.635 ± 0.019 | 0.7027 ± 0.0031 |
| VFCMVLPFVLLT | 0.214 ± 0.035 | 0.126 ± 0.018 | 0.0906 ± 0.016 | 0.194 ± 0.024 | 0.2715 ± 0.0011 | 0.1776 ± 0.0015 | 0.136 ± 0.02 | 0.157 ± 0.016 |
| VFFCVLRVFFSA | 0.193 ± 0.017 | 0.0798 ± 0.024 | 0.161 ± 0.015 | 0.175 ± 0.024 | 0.291 ± 0.0075 | 0.114 ± 0.013 | 0.132 ± 0.029 | 0.195 ± 0.0091 |
| VFFIFFFAFLFF | 0.329 ± 0.051 | 0.294 ± 0.035 | 0.289 ± 0.0075 | 0.335 ± 0.052 | 0.41 ± 0.0072 | 0.393 ± 0.01 | 0.322 ± 0.014 | 0.39 ± 0.03 |
| VFFMFVFFPFPG | 0.471 ± 0.026 | 0.523 ± 0.084 | 0.584 ± 0.035 | 0.404 ± 0.029 | 0.592 ± 0.03 | 0.368 ± 0.014 | 0.413 ± 0.028 | 0.538 ± 0.0059 |
| VFGSRCLLTVVV | 0.438 ± 0.043 | 0.472 ± 0.0098 | 0.477 ± 0.023 | 0.367 ± 0.032 | 0.5185 ± 0.0017 | 0.336 ± 0.018 | 0.358 ± 0.043 | 0.504 ± 0.0071 |
| VFGWWSVVLRVA | 0.109 ± 0.029 | 0.0612 ± 0.0012 | 0.0938 ± 0.009 | 0.166 ± 0.027 | 0.249 ± 0.0082 | 0.0577 ± 0.014 | 0.0694 ± 0.017 | 0.0612 ± 0.011 |
| VFILGFLCLLFF | 0.355 ± 0.036 | 0.403 ± 0.03 | 0.428 ± 0.014 | 0.342 ± 0.017 | 0.497 ± 0.077 | 0.362 ± 0.045 | 0.334 ± 0.024 | 0.445 ± 0.054 |
| VFIPFGFCLCFV | 0.373 ± 0.0028 | 0.408 ± 0.012 | 0.4114 ± 0.0039 | 0.317 ± 0.019 | 0.466 ± 0.0087 | 0.318 ± 0.015 | 0.295 ± 0.017 | 0.4401 ± 0.0027 |
| VFLCFSWHFFLF | 0.405 ± 0.012 | 0.4543 ± 0.0039 | 0.591 ± 0.035 | 0.411 ± 0.037 | 0.559 ± 0.036 | 0.297 ± 0.0049 | 0.304 ± 0.029 | 0.467 ± 0.011 |

| Sequence | protein stability index (Saccharomyces cerevisiae [1]) | protein stability index (Saccharomyces cerevisiae [2]; [3]) | protein stability index (Saccharomyces cerevisiae [2]; [4]) | protein stability index (Saccharomyces cerevisiae [2]; [5]) | protein stability index (Saccharomyces cerevisiae [2]; [6]) | protein stability index (Saccharomyces cerevisiae [2]; [7]) | protein stability index (Saccharomyces cerevisiae [2]; [8]) | protein stability index (Saccharomyces cerevisiae [2]; [9]) |
| --- | --- | --- | --- | --- | --- | --- | --- | --- |
| VFLVGFRVTLDS | 0.295 ± 0.0062 | 0.267 ± 0.035 | 0.289 ± 0.011 | 0.219 ± 0.025 | 0.404 ± 0.018 | 0.189 ± 0.018 | 0.215 ± 0.033 | 0.419 ± 0.0069 |
| VFSFWVLCEVSV | 0.04525 ± 0.0004 | 0.0333 ± 0.0097 | 0.0546 ± 0.015 | 0.0315 ± 0.0099 | 0.0841 ± 0.013 | 0.0219 ± 0.0031 | 0.0221 ± 0.0057 | 0.072 ± 0.02 |
| VFVFTFSLSFYC | 0.3465 ± 0.0031 | 0.223 ± 0.031 | 0.326 ± 0.0073 | 0.25 ± 0.028 | 0.356 ± 0.019 | 0.257 ± 0.02 | 0.274 ± 0.018 | 0.3241 ± 0.0021 |
| VFVRDFLVSIVV | 0.257 ± 0.014 | 0.0474 ± 0.014 | 0.0563 ± 0.0023 | 0.174 ± 0.025 | 0.196 ± 0.0061 | 0.139 ± 0.0096 | 0.164 ± 0.022 | 0.166 ± 0.011 |
| VFWVLVSFLFYV | 0.346 ± 0.023 | 0.339 ± 0.011 | 0.406 ± 0.012 | 0.307 ± 0.028 | 0.4496 ± 0.0013 | 0.281 ± 0.014 | 0.3 ± 0.018 | 0.4059 ± 0.0036 |
| VFWVVFRALVGD | 0.233 ± 0.022 | 0.191 ± 0.015 | 0.29497 ± 0.00028 | 0.217 ± 0.018 | 0.269 ± 0.02 | 0.222 ± 0.013 | 0.212 ± 0.0029 | 0.26 ± 0.0051 |
| VGAGVFAWLWVA | 0.199 ± 0.024 | 0.533 ± 0.02 | 0.664 ± 0.016 | 0.59 ± 0.016 | 0.7101 ± 0.001 | 0.128 ± 0.025 | 0.145 ± 0.024 | 0.135 ± 0.0078 |
| VGAYSVVYVVFS | 0.433 ± 0.036 | 0.481 ± 0.026 | 0.517 ± 0.011 | 0.322 ± 0.026 | 0.5467 ± 0.00081 | 0.272 ± 0.0067 | 0.318 ± 0.025 | 0.529 ± 0.0059 |
| VGVLWALIVGVR | 0.251 ± 0.035 | 0.167 ± 0.011 | 0.226 ± 0.02 | 0.191 ± 0.035 | 0.36 ± 0.0087 | 0.159 ± 0.0094 | 0.18 ± 0.012 | 0.289 ± 0.043 |
| VGVYVWRGVLWA | 0.296 ± 0.044 | 0.277 ± 0.025 | 0.402 ± 0.035 | 0.257 ± 0.024 | 0.444 ± 0.0077 | 0.184 ± 0.0022 | 0.218 ± 0.028 | 0.397 ± 0.024 |
| VHHAFLPYTLVR | 0.485 ± 0.01 | 0.502 ± 0.021 | 0.57 ± 0.011 | 0.375 ± 0.028 | 0.591 ± 0.017 | 0.361 ± 0.011 | 0.407 ± 0.019 | 0.5709 ± 0.0043 |
| VHNIDLFVVCYI | 0.346 ± 0.0067 | 0.433 ± 0.025 | 0.443 ± 0.014 | 0.251 ± 0.047 | 0.482 ± 0.0094 | 0.222 ± 0.0048 | 0.258 ± 0.027 | 0.451 ± 0.015 |
| VIAFFSVLKRYV | 0.421 ± 0.016 | 0.641 ± 0.0088 | 0.704 ± 0.011 | 0.58 ± 0.037 | 0.712 ± 0.0078 | 0.199 ± 0.0083 | 0.241 ± 0.0073 | 0.465 ± 0.0052 |
| VKSAVLLFFLVT | 0.257 ± 0.0044 | 0.357 ± 0.0084 | 0.483 ± 0.019 | 0.359 ± 0.031 | 0.537 ± 0.0055 | 0.178 ± 0.016 | 0.199 ± 0.021 | 0.312 ± 0.01 |
| VLFFLVTSSVYF | 0.269 ± 0.04 | 0.124 ± 0.036 | 0.263 ± 0.03 | 0.201 ± 0.031 | 0.37 ± 0.0049 | 0.159 ± 0.0068 | 0.187 ± 0.0095 | 0.327 ± 0.0083 |
| VLPCSLVPLRLH | 0.445 ± 0.014 | 0.66 ± 0.015 | 0.704 ± 0.029 | 0.642 ± 0.012 | 0.702 ± 0.011 | 0.349 ± 0.013 | 0.374 ± 0.026 | 0.548 ± 0.0098 |
| VLPLRCSWAAQG | 0.39 ± 0.035 | 0.693 ± 0.007 | 0.7521 ± 0.005 | 0.639 ± 0.026 | 0.747 ± 0.027 | 0.246 ± 0.019 | 0.298 ± 0.013 | 0.538 ± 0.044 |
| VMLIRVSRGIKC | 0.41 ± 0.0097 | 0.359 ± 0.044 | 0.463 ± 0.13 | 0.293 ± 0.024 | 0.4846 ± 0.0047 | 0.242 ± 0.0097 | 0.29 ± 0.038 | 0.473 ± 0.0067 |
| VMLVISRLLLLF | 0.174 ± 0.021 | 0.465 ± 0.058 | 0.523 ± 0.0094 | 0.455 ± 0.033 | 0.613 ± 0.018 | 0.111 ± 0.0019 | 0.105 ± 0.017 | 0.168 ± 0.018 |
